{
  "source": "paper PMC5861452",
  "data": [
    {"target": "NS5A domain 1+ (WT) (Hepatitis C virus (replicon plasmid …, UniProt Q9WMX2 2005-2221))", "sequence (Q9WMX2 2005-2221)": "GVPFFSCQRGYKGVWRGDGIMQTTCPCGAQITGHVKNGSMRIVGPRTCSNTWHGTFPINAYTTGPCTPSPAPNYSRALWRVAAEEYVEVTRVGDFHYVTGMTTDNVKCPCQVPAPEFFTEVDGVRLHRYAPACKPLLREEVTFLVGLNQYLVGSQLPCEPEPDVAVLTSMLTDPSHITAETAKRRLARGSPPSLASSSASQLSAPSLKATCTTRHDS", "assay": "fluorescence polarization", "units": {"Kd": "nM"}, "values": [
      {"binder": "GGGUGGGGGUGG (ssRNA)", "note": "[RNA 2 (consensus derived)]", "Kd": "20 ± 2.7"},
      {"binder": "GGCUGAGGCAGG (ssRNA)", "note": "[RNA 1 (consensus sequence 1)]", "Kd": "10 ± 1.5"},
      {"binder": "UGUUUGUUUGUCCC (ssRNA)", "note": "[RNA 3 (minimal GRE)]", "Kd": "100 ± 10"},
      {"binder": "AAAAAAAAAAAAAAA (ssRNA)", "note": "[RNA 6 (A15)]", "Kd": "1000 ± 150"}
    ]}
  ]
}
